Test system: peptide library, one residue held at a place counted from the Y acceptor
Experiment: relative phosphorylation of the sub-library (ratio to the mean residue at this position); higher = residue favoured
How it was run: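 Purified recombinant kinases were given 50 μM ATP with γ-32P-ATP and biotinylated Tyr-centred peptide library mixtures for 90 min in 384-well plates. Peptides bound to streptavidin membranes were rinsed and quantified by phosphorimaging, and intensities were normalized per position by the sum of the 18 randomized residues (16 with the Ser/Thr-free library) and multiplied by that number. The reported values are phosphorylation relative to the mean randomized residue.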

Chain of NTRK1, construct: aa440-end, human (P04629 440-796, looked up): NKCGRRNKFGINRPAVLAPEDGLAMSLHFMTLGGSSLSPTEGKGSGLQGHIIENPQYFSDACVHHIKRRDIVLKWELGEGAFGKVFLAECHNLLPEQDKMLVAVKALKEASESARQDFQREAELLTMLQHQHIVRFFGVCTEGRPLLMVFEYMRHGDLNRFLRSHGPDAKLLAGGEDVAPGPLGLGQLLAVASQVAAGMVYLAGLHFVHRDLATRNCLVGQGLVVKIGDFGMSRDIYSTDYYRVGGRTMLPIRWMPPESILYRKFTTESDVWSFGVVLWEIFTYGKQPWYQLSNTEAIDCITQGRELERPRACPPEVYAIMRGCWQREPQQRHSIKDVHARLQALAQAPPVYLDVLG
Chain of MKK7, construct: Full length, human (O14733 whole entry, looked up): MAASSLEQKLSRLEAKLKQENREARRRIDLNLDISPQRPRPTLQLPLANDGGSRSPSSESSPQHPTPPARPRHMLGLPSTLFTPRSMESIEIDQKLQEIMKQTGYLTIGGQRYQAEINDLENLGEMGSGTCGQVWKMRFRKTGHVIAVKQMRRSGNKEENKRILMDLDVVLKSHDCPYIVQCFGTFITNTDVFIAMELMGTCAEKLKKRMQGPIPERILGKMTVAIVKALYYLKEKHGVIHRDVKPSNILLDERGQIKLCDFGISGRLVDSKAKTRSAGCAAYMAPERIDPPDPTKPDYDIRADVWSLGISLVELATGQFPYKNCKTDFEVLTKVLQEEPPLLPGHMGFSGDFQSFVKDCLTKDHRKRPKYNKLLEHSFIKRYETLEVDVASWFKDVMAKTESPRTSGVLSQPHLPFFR

MKK7, construct: Full length, human (from UniProt O14733)
relative phosphorylation
Conditions	at +1	at +2	at +3	at +4	at +5	at -1	at -2	at -3	at -4	at -5
A fixed	0.866	0.844	0.903	0.959	0.929	1.02	0.884	0.883	1.05	0.989
D fixed	0.796	1.11	1.02	1.07	0.952	0.915	0.883	0.947	0.993	1.02
E fixed	0.856	0.895	1.27	0.992	1.05	0.914	0.91	0.926	0.996	0.917
F fixed	1.11	1.39	1.21	1.13	1.14	0.857	1.28	1.1	1.08	1.14
G fixed	0.926	0.779	0.915	0.979	1.11	1.38	1.24	1.25	1.19	1.04
H fixed	1	1.09	1.02	1.02	1.02	0.958	1.06	1.05	0.968	1.09
I fixed	0.983	0.753	0.89	0.93	0.8	0.896	0.764	0.807	0.882	0.87
K fixed	0.896	1.09	0.896	0.989	1.08	1.04	1.17	1.14	1.06	1.16
L fixed	1.04	0.851	0.841	1.13	0.891	1.04	0.821	0.912	0.894	0.913
M fixed	1.38	0.857	1.05	1.03	0.977	0.926	0.855	0.828	0.881	0.89
N fixed	0.919	0.946	0.973	0.894	0.984	0.947	1.04	0.98	0.89	0.959
P fixed	0.955	0.819	0.941	1.09	1.04	1.07	1.04	1.06	1.11	0.99
Q fixed	0.873	0.929	1.09	0.881	0.991	0.951	0.891	1.07	0.974	0.952
R fixed	1	1.09	1.01	0.97	1.13	1.12	1.29	1.24	1.13	1.16
V fixed	0.918	0.844	0.822	0.828	0.73	0.85	0.803	0.794	0.844	0.802
W fixed	1.49	1.72	1.14	1.11	1.18	1.12	1.07	1.01	1.06	1.1
pThr fixed	0.894	1.05	0.876	1.08	1.01	1.09	0.859	1.08	1.05	1.11
pTyr fixed	0.963	1.06	1.03	1.01	1.09	1.57	1.11	1.82	1.05	1.11

NTRK1, construct: aa440-end, human (from UniProt P04629)
relative phosphorylation
Conditions	at +1	at +2	at +3	at +4	at +5	at -1	at -2	at -3	at -4	at -5
A fixed	1.34	0.684	0.751	0.76	0.909	0.676	0.944	0.792	1.02	0.882
D fixed	0.529	0.79	0.541	1.4	1.19	2.24	1.22	1.3	1.08	1.17
E fixed	0.936	1.28	0.45	1.52	1.12	1.07	1.34	1.5	1.32	1.03
F fixed	1.66	1.26	1.82	0.952	1.24	0.966	0.812	1.12	1.33	1.04
G fixed	0.711	0.438	0.891	1.25	1.07	0.578	1.05	0.955	1.05	1.08
H fixed	0.979	0.731	0.706	1.09	0.991	1.42	0.947	1.15	0.963	1.04
I fixed	1.66	1.28	2.02	0.897	0.748	1.32	0.854	0.777	0.837	0.946
K fixed	0.236	0.577	0.271	0.658	0.783	0.273	0.811	0.691	0.722	0.782
L fixed	1.2	1.2	1.92	0.734	0.983	1.17	1.01	0.794	0.939	0.93
M fixed	1.79	1.4	1.64	1.04	1.03	0.884	1.02	0.979	0.884	0.997
N fixed	0.441	0.952	0.475	0.899	1	2.12	1.25	1.39	0.93	1.23
P fixed	0.267	0.688	0.885	1.15	1.42	0.942	0.936	0.875	1.12	0.996
Q fixed	0.984	0.922	0.544	1.01	0.944	0.869	1.18	0.872	1.1	1.04
R fixed	0.273	0.983	0.419	0.803	0.883	0.349	0.871	0.854	0.79	1.02
S fixed	0.736	0.743	0.725	0.829	0.788	0.686	1.11	1.01	0.803	0.89
T fixed	0.916	0.955	0.868	0.85	0.715	0.873	0.897	0.987	0.671	0.939
V fixed	1.84	1.06	1.38	0.784	0.743	0.951	0.756	0.696	0.791	0.785
W fixed	1.5	2.06	1.71	1.37	1.43	0.614	0.99	1.25	1.66	1.2
pThr fixed	1.54	0.962	0.449	1.08	0.958	0.981	0.838	0.952	0.96	1.03
pTyr fixed	2.47	2.33	0.884	1.74	1.01	4.13	1.32	1.48	1.44	1.23

— the supplement of paper PMC11136658
